From patent US20070065819A1 (Takeda / Millennium, published 2007)
Where no end group is shown, it is not given here. The star is where a group is joined. For = O=C*

T1: human FPRL1 (human, UniProt P25090 1-351)
T1 construct: Expressed in CHO cells (No. 8); also called human-derived FPRL1
T1 sequence: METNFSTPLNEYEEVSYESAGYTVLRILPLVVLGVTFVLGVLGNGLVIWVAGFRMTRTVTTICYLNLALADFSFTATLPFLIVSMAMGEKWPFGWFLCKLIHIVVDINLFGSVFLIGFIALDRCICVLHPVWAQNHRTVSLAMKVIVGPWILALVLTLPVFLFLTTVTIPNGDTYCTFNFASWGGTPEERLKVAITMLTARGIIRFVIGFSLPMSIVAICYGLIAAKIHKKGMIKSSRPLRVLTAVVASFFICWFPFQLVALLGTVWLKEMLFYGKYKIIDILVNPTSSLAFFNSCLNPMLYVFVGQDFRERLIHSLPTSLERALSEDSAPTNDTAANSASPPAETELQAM

B1: human FPRL1 ligand P3 (hfCYOX-1(1-13)) (peptide)
peptide: For-MFADRWLFSTNHK
notes: Synthesized at Peptide Institute, Inc; also called human FPRL ligand P3
B2: porcine FPRL1 ligand P3 (pfCYOX-1(1-13)) (peptide)
peptide: For-MFVNRWLYSTNHK
notes: The purified fraction also held a Met(O) oxidant; also called porcine FPRL ligand P3; porcine intrinsic FPRL1 ligand P3

Biological target: T1, human FPRL1
Experiment: competitive inhibition of binding of 125I-labeled compound to membrane fraction of human FPRL1-expressing CHO cells, filter trapping
Method: Then, by reverse phase HPLC using TSKgel ODS-80TM CTR 4.6 x 100 mm column, a peak of labeled form, which was produced by the reaction, was fractionated. The fraction was mixed with an equal volume of assay buffer (50 mM Tris-HCI/pH7.5, 5 mM EDTA, 0.5 mM PMSF, 20 μg/ml leupeptine, 0.1 μtg/ml pepstatin A, 4 μg/ml E-64 (Peptide Institute), and 0.1% bovine serum albumin) and stored at −30° C. until use.
Human FPRL1-expressing CHO cells (No. 8) were cultivated, collected using PBS containing 5 mM EDTA from culture vessel, and suspended in assay buffer containing no bovine serum albumin, which is described above. Homogenization using Polytron homegenizer (Kinematica) at 18,000 rpm for 40 seconds was performed three times. After centrifugation (1000xg, 4° C., 10 minutes), supernatant was recovered. […]
Competitive inhibition test was carried out under the following conditions. […] After completely drying the filter, Microcinti 0 (Packard) was added to the filter, and a level of labeled form co-trapped with the membrane fraction on the filter was measured using Topcount (Pakard). Non-specific binding level was subtracted from each measured value. Then the ratio of reduced binding level by addition of test sample to the well with notest sample (total binding level), that is, the inhibition rate was calculated. Further, from dosage of test sample-inhibition curve, IC₅₀ was calculated (Table 1).

Row | Binder | IC50
1 | B1 | 1.1 nM
2 | B2 | 0.15 nM
